Data reported in EP4806514A2 (Lepu Biopharma Co., Ltd., dated 2025).

Target: T1, human CDH17, full length, expressed on cells (HEK293-hCDH17); AsPC-1, HCT-8, AGS, LoVo, KATO III, HT-29 tumor … (human, UniProt Q12864 23-832)
T1 construct: also called human CDH17 expressed on tumor cells
T1 sequence: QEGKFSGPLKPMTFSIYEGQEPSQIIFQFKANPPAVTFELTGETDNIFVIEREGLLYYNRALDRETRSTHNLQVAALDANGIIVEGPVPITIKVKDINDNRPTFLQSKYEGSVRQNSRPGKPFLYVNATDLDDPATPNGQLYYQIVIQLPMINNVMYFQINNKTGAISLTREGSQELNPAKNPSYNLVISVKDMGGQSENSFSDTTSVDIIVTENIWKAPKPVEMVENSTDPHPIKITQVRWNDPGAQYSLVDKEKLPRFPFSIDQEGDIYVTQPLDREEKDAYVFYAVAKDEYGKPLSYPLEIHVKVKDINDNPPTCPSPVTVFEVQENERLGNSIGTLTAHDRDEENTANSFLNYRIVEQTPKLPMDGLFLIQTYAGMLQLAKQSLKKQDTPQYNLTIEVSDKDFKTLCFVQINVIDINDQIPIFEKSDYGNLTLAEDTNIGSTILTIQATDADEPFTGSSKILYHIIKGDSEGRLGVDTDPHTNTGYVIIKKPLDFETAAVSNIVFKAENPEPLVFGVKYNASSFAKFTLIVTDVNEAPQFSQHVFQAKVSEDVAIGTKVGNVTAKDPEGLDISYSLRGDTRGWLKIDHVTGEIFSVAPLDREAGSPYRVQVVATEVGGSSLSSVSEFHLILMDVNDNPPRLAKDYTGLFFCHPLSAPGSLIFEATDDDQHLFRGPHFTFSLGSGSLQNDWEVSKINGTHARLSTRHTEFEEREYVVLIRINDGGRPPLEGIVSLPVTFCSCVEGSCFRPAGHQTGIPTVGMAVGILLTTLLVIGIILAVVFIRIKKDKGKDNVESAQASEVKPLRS
Experiment: flow cytometry, AsPC-1, AGS, KATO III and HT-29 cells

binding result: binds
B1: 29D2D7-z19p3-DXd (antibody, V domains shown)
VH: QVQLVQSGAEVKKPGASVKVSCKASGYTFTDYDMHWVKQAPGQGLEWIGGFDPESAGTVYNLRFKDKATLTADKSTSTAYMELRSLRSEDTAVYYCARKGYYSVSSPFTYWGQGTLVTVSS
VL: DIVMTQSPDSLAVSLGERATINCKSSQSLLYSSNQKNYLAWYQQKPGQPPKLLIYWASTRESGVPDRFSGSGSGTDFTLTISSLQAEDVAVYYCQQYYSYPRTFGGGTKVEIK
modifications: MC-GGFG-DXd (deruxtecan) conjugated to the antibody, DAR around 7.50-7.90; sites not given
notes: also called 29D2D7-z19-MC-GGFG-DXd
